One block for each molecule: values may come before it.
Legend:
Assay in all cases: native MS; nanoESI on a Waters SELECT Series Cyclic IMS (Q-IM-TOF), gentle tuning at low cone voltage; quadrupole-selected charge-reduced precursor, surface-induced dissociation and ion mobility; 160/40 ammonium acetate/triethylammonium acetate; CRP 1 uM, SA 2-3 uM, PhosB 4 uM; TRAP ~1.5 uM complex in 600 mM ammonium acetate with TEAA added for 15+
[1] = molecular target: streptavidin (UniProt P22629)
[2] = molecular target: T1, human recombinant C-reactive protein (human), P02741; conditions: remark: other sources report otherwise
T1 chain: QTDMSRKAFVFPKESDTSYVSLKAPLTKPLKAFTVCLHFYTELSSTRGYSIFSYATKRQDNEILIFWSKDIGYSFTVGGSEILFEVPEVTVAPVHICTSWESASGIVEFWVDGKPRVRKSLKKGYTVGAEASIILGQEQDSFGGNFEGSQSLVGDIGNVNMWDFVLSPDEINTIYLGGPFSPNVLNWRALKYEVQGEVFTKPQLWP

[3] = molecular target: the molecule itself

stoichiometry N [1]: 4
Molecule: streptavidin (from UniProt P22629 25-183) (natural protein)

stoichiometry N [2]: 5
B1: human recombinant C-reactive protein, P02741 19-224 (natural protein)
chain: T1 chain

B2: Tryptophan RNA-binding attenuation protein (TRAP) from Bacillus stearothermophilus (natural protein, UniProt Q9X6J6 1-74, looked up)
chain: MYTNSDFVVIKALEDGVNVIGLTRGADTRFHHSEKLDKGEVLIAQFTEHTSAIKVRGKAYIQTRHGVIESEGKK
notes: also called TRAP bst; source: Mark Foster's lab; copies: 11
stoichiometry N [3]: 11

B3: phosphorylase B (enzyme, UniProt P00489 1-843, looked up)
chain: MSRPLSDQEKRKQISVRGLAGVENVTELKKNFNRHLHFTLVKDRNVATPRDYYFALAHTVRDHLVGRWIRTQQHYYEKDPKRIYYLSLEFYMGRTLQNTMVNLALENACDEATYQLGLDMEELEEIEEDAGLGNGGLGRLAACFLDSMATLGLAAYGYGIRYEFGIFNQKICGGWQMEEADDWLRYGNPWEKARPEFTLPVHFYGRVEHTSQGAKWVDTQVVLAMPYDTPVPGYRNNVVNTMRLWSAKAPNDFNLKDFNVGGYIQAVLDRNLAENISRVLYPNDNFFEGKELRLKQEYFVVAATLQDIIRRFKSSKFGCRDPVRTNFDAFPDKVAIQLNDTHPSLAIPELMRVLVDLERLDWDKAWEVTVKTCAYTNHTVLPEALERWPVHLLETLLPRHLQIIYEINQRFLNRVAAAFPGDVDRLRRMSLVEEGAVKRINMAHLCIAGSHAVNGVARIHSEILKKTIFKDFYELEPHKFQNKTNGITPRRWLVLCNPGLAEIIAERIGEEYISDLDQLRKLLSYVDDEAFIRDVAKVKQENKLKFAAYLEREYKVHINPNSLFDVQVKRIHEYKRQLLNCLHVITLYNRIKKEPNKFVVPRTVMIGGKAAPGYHMAKMIIKLITAIGDVVNHDPVVGDRLRVIFLENYRVSLAEKVIPAADLSEQISTAGTEASGTGNMKFMLNGALTIGTMDGANVEMAEEAGEENFFIFGMRVEDVDRLDQRGYNAQEYYDRIPELRQIIEQLSSGFFSPKQPDLFKDIVNMLMHHDRFKVFADYEEYVKCQERVSALYKNPREWTRMVIRNIATSGKFSSDRTIAQYAREIWGVEPSRQRLPAPDEKIP
notes: phosphorylase B, dimer, 197 kDa; This catalogue product is recalled to be from rabbit muscle (surmise); also called PhosB; source: bought: Millipore Sigma (P/N P6635)
stoichiometry N [3]: 2
